Reference: the supplement of paper PMC10126150
± gives the standard deviation of the averaged measurements.

Test system: ATP
Test: switch fluorescence ratio, 500 uM ATP over buffer (Cy3 cluster intensity, sum of 5 cycles each) (fold (ratio)); higher = stronger signal-on switching upon ATP binding; sequences stand for … in TCGTCGGCAGCGTCAGATGTGTATAAGAGACAGTTTTTTTTTTTTTTTTTTTTTTTTT…TC
Conditions: aptamer strand: ATP DNA aptamer (quencher-CACCTGGGGGAGTATTGCGGAGGAAGG + anchor), 100 nM annealed; ATP concentration: 500 uM
How it was run: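 Between each of five buffer/ATP cycles, the flow-cell was stripped with NaOH and re-annealed. Each cycle imaged Cy3-labelled switching-strand clusters, annealed to 100 nM quencher-labelled ATP aptamer on a modified Illumina MiSeq flow-cell, first in selection buffer and then after 15 min with 500 uM ATP at 22 °C. The fluorescence ratio is summed target-cycle over summed buffer-cycle Cy3 intensity per cluster, averaged per switch-domain sequence, with clusters outside 100-1000 RFU excluded.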
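Further: ATP exposure 15 min at 22 °C before imaging.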

Question: Which switch fluorescence ratio does the source give for TTCATAGTTC here?
Answer: 0.986 ± 0.013

Question: How did the switch fluorescence ratio turn out when TTCATATTTT was run?
Answer: 0.996 ± 0.015

Question: With TTCATCGACT as the sequence, how does the switch fluorescence ratio read?
Answer: 0.996 ± 0.047

Question: How did the switch fluorescence ratio turn out when TTCATCTCGC was run?
Answer: 1.1 ± 0.1

Question: TTCATGGTTT was tested. Which switch fluorescence ratio did it give?
Answer: 1.01 ± 0.028

Question: Which switch fluorescence ratio does the source give for TTCATGTTGG here?
Answer: 0.998 ± 0.019

Question: How did the switch fluorescence ratio turn out when TTCATTAGCT was run?
Answer: 1 ± 0.025

Question: TTCATTTATT was tested. Which switch fluorescence ratio did it give?
Answer: 0.9904 ± 0.0055

Question: Which switch fluorescence ratio does the source give for TTCATTTGAG here?
Answer: 0.995 ± 0.021

Question: How did the switch fluorescence ratio turn out when TTCATTTTGC was run?
Answer: 1.02 ± 0.015

Question: TTCCAAAATG was tested. Which switch fluorescence ratio did it give?
Answer: 1.005 ± 0.0081

Question: For TTCCAAATCC, which switch fluorescence ratio is on record?
Answer: 1.01 ± 0.056

Question: Which switch fluorescence ratio does the source give for TTCCACATCC here?
Answer: 1.07 ± 0.044

Question: For TTCCACGCGG, which switch fluorescence ratio is on record?
Answer: 1.268 ± 0.0091

Question: How did the switch fluorescence ratio turn out when TTCCAGATTT was run?
Answer: 1.02 ± 0.062

Question: Which switch fluorescence ratio does the source give for TTCCAGGTTC here?
Answer: 1.04 ± 0.012

Question: How did the switch fluorescence ratio turn out when TTCCAGTTTT was run?
Answer: 1 ± 0.04

Question: How did the switch fluorescence ratio turn out when TTCCATCCAT was run?
Answer: 1.0067 ± 0.00069

Question: With TTCCATCGCC as the sequence, how does the switch fluorescence ratio read?
Answer: 1.53 ± 0.14

Question: With TTCCATCGGG as the sequence, how does the switch fluorescence ratio read?
Answer: 0.993 ± 0.033

Question: TTCCATGCGG was tested. Which switch fluorescence ratio did it give?
Answer: 1.02 ± 0.037

Question: With TTCCATTAGT as the sequence, how does the switch fluorescence ratio read?
Answer: 1.01 ± 0.035

Question: TTCCCAGTGT was tested. Which switch fluorescence ratio did it give?
Answer: 1.87 ± 0.053

Question: Which switch fluorescence ratio does the source give for TTCCCATTTA here?
Answer: 1.04 ± 0.02

Question: With TTCCCGTTGA as the sequence, how does the switch fluorescence ratio read?
Answer: 1.14 ± 0.027

Question: Which switch fluorescence ratio does the source give for TTCCCTAAGG here?
Answer: 2.35 ± 1.7

Question: For TTCCGGAAGT, which switch fluorescence ratio is on record?
Answer: 1.04 ± 0.04

Question: TTCCGGATGG was tested. Which switch fluorescence ratio did it give?
Answer: 1.01 ± 0.021

Question: For TTCCGGGACG, which switch fluorescence ratio is on record?
Answer: 1.027 ± 0.0033

Question: For TTCCGGGTAT, which switch fluorescence ratio is on record?
Answer: 1.07 ± 0.03

Question: How did the switch fluorescence ratio turn out when TTCCGGGTGT was run?
Answer: 1.66 ± 0.75

Question: TTCCGTCTTC was tested. Which switch fluorescence ratio did it give?
Answer: 1.09 ± 0.11

Question: For TTCCTAAAAG, which switch fluorescence ratio is on record?
Answer: 0.979 ± 0.011

Question: TTCCTAATT was tested. Which switch fluorescence ratio did it give?
Answer: 1.03 ± 0.033

Question: TTCCTGCTTG was tested. Which switch fluorescence ratio did it give?
Answer: 1.36 ± 0.6

Question: How did the switch fluorescence ratio turn out when TTCCTGGGGA was run?
Answer: 0.9943 ± 0.0077

Question: How did the switch fluorescence ratio turn out when TTCCTGGGTT was run?
Answer: 1.002 ± 0.0097

Question: Which switch fluorescence ratio does the source give for TTCCTGGTCA here?
Answer: 0.997 ± 0.012

Question: Which switch fluorescence ratio does the source give for TTCCTTCTTT here?
Answer: 1.08 ± 0.061

Question: How did the switch fluorescence ratio turn out when TTCGAAGATT was run?
Answer: 1 ± 0.051

Question: How did the switch fluorescence ratio turn out when TTCGAAGGCT was run?
Answer: 0.995 ± 0.017

Question: TTCGAATATT was tested. Which switch fluorescence ratio did it give?
Answer: 1.13 ± 0.26

Question: Which switch fluorescence ratio does the source give for TTCGACGAGG here?
Answer: 0.996 ± 0.022

Question: For TTCGAGTGCC, which switch fluorescence ratio is on record?
Answer: 0.991 ± 0.013

Question: With TTCGATGCGG as the sequence, how does the switch fluorescence ratio read?
Answer: 1.02 ± 0.036

Question: Which switch fluorescence ratio does the source give for TTCGATGGAA here?
Answer: 1.06 ± 0.0038

Question: TTCGATGGTG was tested. Which switch fluorescence ratio did it give?
Answer: 0.987 ± 0.0044

Question: Which switch fluorescence ratio does the source give for TTCGATTCGA here?
Answer: 0.961 ± 0.011

Question: With TTCGATTGTG as the sequence, how does the switch fluorescence ratio read?
Answer: 0.9867 ± 0.0088

Question: How did the switch fluorescence ratio turn out when TTCGATTTTT was run?
Answer: 0.981 ± 0.048

Question: With TTCGCAACGG as the sequence, how does the switch fluorescence ratio read?
Answer: 1.22 ± 0.34

Question: Which switch fluorescence ratio does the source give for TTCGCCGGTT here?
Answer: 1.02 ± 0.0021

Question: With TTCGCGTAGA as the sequence, how does the switch fluorescence ratio read?
Answer: 1.01 ± 0.014

Question: With TTCGGAACGG as the sequence, how does the switch fluorescence ratio read?
Answer: 0.991 ± 0.027

Question: How did the switch fluorescence ratio turn out when TTCGGACCCG was run?
Answer: 0.976 ± 0.01

Question: With TTCGGACCTT as the sequence, how does the switch fluorescence ratio read?
Answer: 1.21 ± 0.021

Question: With TTCGGAGTCA as the sequence, how does the switch fluorescence ratio read?
Answer: 1.1 ± 0.019

Question: Which switch fluorescence ratio does the source give for TTCGGATAGT here?
Answer: 0.98 ± 0.011

Question: Which switch fluorescence ratio does the source give for TTCGGCGGGC here?
Answer: 1 ± 0.027

Question: With TTCGGCGTTG as the sequence, how does the switch fluorescence ratio read?
Answer: 0.972 ± 0.02

Question: TTCGGCTTGA was tested. Which switch fluorescence ratio did it give?
Answer: 0.994 ± 0.028

Question: With TTCGGGAATA as the sequence, how does the switch fluorescence ratio read?
Answer: 1.03 ± 0.022

Question: For TTCGGGAGAA, which switch fluorescence ratio is on record?
Answer: 1.01 ± 0.052

Question: TTCGGGAGGG was tested. Which switch fluorescence ratio did it give?
Answer: 0.973 ± 0.029

Question: TTCGGGCATT was tested. Which switch fluorescence ratio did it give?
Answer: 0.989 ± 0.046

Question: How did the switch fluorescence ratio turn out when TTCGGGGCGG was run?
Answer: 0.934 ± 0.071

Question: For TTCGGGGGGT, which switch fluorescence ratio is on record?
Answer: 1.02 ± 0.051

Question: How did the switch fluorescence ratio turn out when TTCGGGGGTA was run?
Answer: 0.97 ± 0.023

Question: Which switch fluorescence ratio does the source give for TTCGGGTAAT here?
Answer: 1.08 ± 0.11

Question: Which switch fluorescence ratio does the source give for TTCGGGTCGC here?
Answer: 0.963 ± 0.049

Question: Which switch fluorescence ratio does the source give for TTCGGGTGGA here?
Answer: 1.02 ± 0.046

Question: How did the switch fluorescence ratio turn out when TTCGGGTTAT was run?
Answer: 1.01 ± 0.049

Question: For TTCGGGTTTC, which switch fluorescence ratio is on record?
Answer: 1.04 ± 0.058

Question: For TTCGGTAAAT, which switch fluorescence ratio is on record?
Answer: 1.03 ± 0.033

Question: With TTCGGTATAG as the sequence, how does the switch fluorescence ratio read?
Answer: 1 ± 0.025

Question: For TTCGGTGACC, which switch fluorescence ratio is on record?
Answer: 1.02 ± 0.014

Question: How did the switch fluorescence ratio turn out when TTCGTAATCG was run?
Answer: 1.07 ± 0.093

Question: TTCGTACAT was tested. Which switch fluorescence ratio did it give?
Answer: 1.13 ± 0.22

Question: TTCGTACGTC was tested. Which switch fluorescence ratio did it give?
Answer: 1.01 ± 0.029

Question: TTCGTATTTC was tested. Which switch fluorescence ratio did it give?
Answer: 1.06 ± 0.083

Question: How did the switch fluorescence ratio turn out when TTCGTCATTT was run?
Answer: 0.983 ± 0.034

Question: For TTCGTGACCC, which switch fluorescence ratio is on record?
Answer: 1.019 ± 0.0043

Question: TTCGTGCGAT was tested. Which switch fluorescence ratio did it give?
Answer: 1.04 ± 0.013

Question: Which switch fluorescence ratio does the source give for TTCGTGCGGC here?
Answer: 1.06 ± 0.042

Question: Which switch fluorescence ratio does the source give for TTCGTGTCCC here?
Answer: 0.994 ± 0.019
